Laboratory results as given in US20240358704A1, “COMBINED ADMINISTRATION” (Hoffmann-La Roche Inc., priority 2021, published 2024).

Experiments:
delta7 mice [1] = experiment: Body weight and muscle weights at PND52 in pharmacological mouse model of SMA; assay type: in vivo
Description: The mouse model of SMA (pharmacological model) that has been used in the preclinical trial herein is the delta7 mice treated with a sub-maximal dose of the SMN-upregulating compound SMN-C1 as described in Naryshkin et al, Science 345, 688-693, 2014. […] The advantage of this model is that it has a more severe phenotype than existing mild models but lives into adulthood, which enables testing SMA treatments after disease onset. […] (1) a monotherapy, (2) as a combination therapy with an SMN-upregulating compound administered at the onset of disease, and (3) in a mild model of SMA was don. Dosing of the myostatin inhibitor began at PND24 and continued for 28 days until PND52. In all of these models, GYM329 was administrated once per week at 3 mg/kg (4 subcutaneous injections). A cohort of wild type (WT) littermates treated with the vehicle was included as a reference group. At the study's conclusion, in vivo muscle force frequency, muscle weight, muscle histopathology, bone morphometry, and voluntary running were assessed.
The pharmacological model was generated by treating delta7 mice [FVB.Cg-Tg(SMN2*delta7)4299Ahmb Tg(SMN2)89Ahmb, homozygous knockout mice completely lacking mouse Smnl] with a dose of an SMN-upregulating compound, SMN-C1. For CH1 and CH2, the mice were given a suboptimal dose of SMN-C1 (0.1 mg/kg daily) for the duration of the study. For CH3 and CH4, mice were given a suboptimal dose of SMN-C1 (0.1 mg/kg daily) from PND1-23 and switched to a higher dose (3 mg/kg daily) from PND24-52. For CH5 and CH6, mice were treated with a higher dose of SMN-C1 (3 mg/kg daily) for the duration of the study. Wild type (WT) mice [FVB.Cg-Tg(SMN2*delta7)4299Ahmb Tg(SMN2)89Ahmb, homozygous for the mouse Smnl gene] were used as a reference.
Statistical analysis was performed using SigmaPlot v11. Muscle performance data were analyzed using a two-way repeated measures ANOVA. Post-hoc analysis for pairwise comparisons was performed with a Holm-Sidak test. Body weights, muscle weights, muscle fiber typing data, and cortical and trabecular bone data were analyzed using a one-way ANOVA, with post-hoc analysis performed with a Holm-Sidak test. Data
Body weights were taken daily for SMA mice and weekly for WT mice.

delta7 mice [2] = experiment: In vivo plantarflexor muscle function (maximum torque, force frequency response); conditions: PND52
Protocol: Hind limb muscle performance was measured in vivo with a 305C muscle lever system (Aurora Scientific Inc., Aurora, CAN). Mice were anesthetized via inhalation (˜4-5% isoflurane, or to effect) and placed on a thermostatically controlled table where anesthesia was maintained via nose-cone (˜2% isoflurane, or to effect). Hair was removed from the lower leg by application of depilatory cream for 3 minutes, followed by thorough rinsing
with physiological buffer. The leg was then wiped with a 5% povidone-iodine solution followed by 70% isopropyl alcohol. The knee was isolated using a pin through the tibial head and the foot firmly fixed to a footplate on the motor shaft. Contractions were elicited in the gastrocnemius by percutaneous electrical stimulation of the sciatic nerve.
(§1) On both muscles, a force frequency response was performed. Briefly, a series of stimulations were performed at increasing frequency of stimulation (0.2 ms pulse, 500 ms train duration): 1, 10, 20, 40, 60, 80, 100, and 150 Hz, followed by a final stimulation at 1 Hz.
(§2) Muscle function data were analyzed using Aurora Scientific 615A Dynamic Muscle Analysis Software Suite in high-throughput mode. The software automatically determines a baseline, a maximum, and a minimum. The baseline is then subtracted from the maximum to give the maximal generated force. Each data file was manually inspected to ensure that cursors and fits were assigned properly and corrected when necessary. Data were then grouped and means and standard error of the mean (SEM) calculated. In the plantarflexor muscle group, results were presented as torque, expressed in the unit mN·m, since the assay measures the force produced by the gastrocnemius rotating about the ankle. Force was directly measured in the masseter, expressed in the unit gram.

delta7 mice [3] = experiment: In vivo masseter muscle function (maximum force, force frequency response); conditions: GYM329 3 mg/kg SC weekly, PND52
Description: To assess masseter function, the mouse was anesthetized via inhalation (˜4-5% isoflurane, or to effect) and placed on a thermostatically controlled table where anesthesia was maintained via nose-cone (˜2% isoflurane, or to effect). The mouse was placed supine with custom designed restraint to ensure accessibility of the jaw for testing. The lever arm of the 305C muscle lever system (Aurora Scientific Inc., Aurora, CAN) was positioned in the diastema of the mandible and a suture was run under the middle lower incisors of the mouse and attached to the lever arm. The masseter was contracted by electrical stimulation using surface electrodes.
as §1, §2

delta7 mice [4] = experiment: Plantarflexor histology: muscle fiber typing and cross-sectional area; assay type: in vivo; conditions: GYM329 3 mg/kg SC weekly
Protocol: Plantarflexor (gastrocnemius, plantaris, and soleus) samples frozen for histology were embedded in cryomatrix on a soft cork surface to enable easy sectioning. Briefly, frozen and embedded tissues were mounted in a cryotome and serially sectioned (10 μm thickness) perpendicular to the fiber axis. Multiple slices (5-10) were taken at different portions of the muscle. The slices were then fixed in ice-cold paraformaldehyde and stored at −80° C. until further use.
For cross-sectional area determination, fixed sections from the mid-belly of the muscle were stained with wheat germ agglutinin (WGA) conjugated to a fluorophore to visualize cell membranes. Sections were digitized using fluorescent microscopy, cell boundaries were traced using predictive software, and cross-sectional area was determined via unbiased automated measurements. For muscle fiber type determination, histological slices were taken from the mid-belly of the soleus and the gastrocnemius muscle. The fixed tissue sections were then blocked using SuperBlock PBS blocking buffer (Thermo Fisher) for 1 h at room temperature. The slide was then washed with PBS and covered with a primary antibody against either MyHC-I, MyHC-IIa, or MyHC-IIb (1:20 dilution; Developmental Studies Hybridoma Database) and incubated overnight at 4° C. The slide was then washed with PBS and the appropriate secondary antibody added for 1 h at room temperature. The slide was washed again in PBS, covered in mounting solution, and a coverslip used to seal the tissue section for fluorescence microscopy measures. Fluorescently-labeled tissue sections were digitized using a fluorescence microscope (Nikon). Images were then analyzed for number of cells using standard counting software.

delta7 mice [5] = experiment: Bone microCT of the tibia (cortical and trabecular parameters); assay type: in vivo; conditions: GYM329 3 mg/kg SC weekly
Protocol: Bone microCT scans were performed in tibias collected at PND52. There was no effect of treatment on cortical or trabecular parameters (FIG. 7 & FIG. 8).

[6] = Tolerability study in healthy adult subjects; assay type: in vivo, human; conditions: at AUC of 385 μg×d/mL
[7] = delta 7 mice + high dose SMN-C1 (3 mg/kg PND1-52), GYM329 3 mg/kg SC weekly, PND52, vs SMA Vehicle
[8] = delta 7 mice + low to high dose SMN-C1 (0.1 mg/kg PND1-23, 3 mg/kg PND24-52)
[9] = delta 7 mice + high dose SMN-C1 (3 mg/kg PND1-52)
[10] = delta 7 mice + high dose SMN-C1 (3 mg/kg PND1-52), vs SMA Vehicle
[11] = delta 7 mice + low dose SMN-C1 (0.1 mg/kg PND1-52)
[12] = PND52, delta 7 mice + low dose SMN-C1 (0.1 mg/kg PND1-52)

B1: GYM329: anti-myostatin antibody binding latent myostatin; CDRs SEQ ID 1-6, VH SEQ ID 7, VL SEQ ID 8, heavy chain SEQ ID 9, light chain SEQ ID 10 (antibody)
heavy: QVQLVESGGGLVQPGGSLRLSCAVSGIDLSHDDISWVRQAPGKGLEWVSIISYAGSTYYASWAKGRLTISKDTSKNQVVLTMTNMDPVDTATYYCARGVPAYSHGGDLWGQGTLVTVSSASTKGPSVFPLAPSSKSTSGGTAALGCLVKDYFPEPVTVSWNSGALTSGVHTFPAVLQSSGLYSLSSVVTVPSSSLGTQTYICNVNHKPSNTKVDKKVEPKSCDKTHTCPPCPAPEYLGGDSVFLFPPKPKDVLMISRTPEVTCVVIDVSHEDPEVKFNWYVDGVEVHNAKTKPREEQYNSTYRVVSVLPVLHRDWLNGKEYKCKVSNKALPKPIEKTISKAKGQRREPQVYTLPPSREEMTKNQVSLTCLVKGFYPSDIAVEWESNGQPENNYKTTPPVLDSDGSFFLYSKLTVDKSRWQQGNVFSCSVLHEALHAHTTRKELSLSP
light: DIVMTQSPATLSLSPGERATLSCTTSQSVYHENWLSWFQQKPGQPPKLLIYWASTLAYGVPSRFSGSGSGTDFTLTISSLQPEDAATYYCAGGYGGGRYAFGQGTKVEIKRTVAAPSVFIFPPSDEQLKSGTASVVCLLNNFYPREAKVQWKVDNALQSGNSQESVTEQDSKDSTYSLSSTLTLSKADYEKHKVYACEVTHQGLSSPVTKSFNRGEC
modifications: CDR sequences
Which Body weights (delta7 mice [1]; [7]) does the source give for B1 here?
Its Body weights is “significantly increased”.

What about the Gastrocnemius weight (delta7 mice [1]; [7]) of the same molecule?
Its Gastrocnemius weight is “significantly increased”.

And the Soleus weight (delta7 mice [1]; [7])?
Its Soleus weight is “significantly increased”.

And the TA weight (delta7 mice [1]; [7])?
Its TA weight is “significantly increased”.

What about the Body weight (delta7 mice [1]; delta 7 mice + low dose SMN-C1 (0.1 mg/kg IP QD PND1-52), GYM329 3 mg/kg SC weekly from PND24, vs SMA Vehicle) of the same molecule?
The Body weight was “not significantly increased”.

What about the Gastrocnemius weight (delta7 mice [1]; delta 7 mice + low dose SMN-C1 (0.1 mg/kg PND1-52), GYM329 3 mg/kg SC weekly, PND52, p=0.061) of the same molecule?
The Gastrocnemius weight was “trend for increased”.

And the Muscle weights (delta7 mice [1]; delta 7 mice + low dose SMN-C1 (0.1 mg/kg PND1-52), GYM329 3 mg/kg SC weekly, PND52, vs SMA Vehicle)?
Its Muscle weights is “did not significantly affect”.

And the Muscle weights (delta7 mice [1]; delta 7 mice + low to high dose SMN-C1 (0.1 mg/kg PND1-23, 3 mg/kg PND24-52), GYM329 3 mg/kg SC weekly, PND52)?
The Muscle weights was “not affected”.

And the “Plantarflexor muscle function (maximum torque)” value (shortened to “Plantarflexor muscle function”) (delta7 mice [2]; delta 7 mice + high dose SMN-C1 (3 mg/kg PND1-52), GYM329 3 mg/kg SC weekly)?
Its value is “not significantly affected”.

What about the “Plantarflexor muscle function” value (delta7 mice [2]; delta 7 mice + low dose SMN-C1 (0.1 mg/kg PND1-52), 3 mg/kg SC weekly, main effect p=0.078 vs SMA Vehicle) of the same molecule?
Its value is “trend for improvement”.

And the “Plantarflexor muscle function” value (delta7 mice [2]; delta 7 mice + low to high dose SMN-C1 (0.1 mg/kg PND1-23, 3 mg/kg PND24-52), GYM329 3 mg/kg SC weekly)?
Its value is “no effect”.

And the Masseter maximum force (delta7 mice [3]; at 80, 100, and 150 Hz, delta 7 mice + high dose SMN-C1 (3 mg/kg PND1-52), vs SMA Vehicle)?
The Masseter maximum force was “increased”.

What about the Masseter function (delta7 mice [3]; delta 7 mice + high dose SMN-C1 (3 mg/kg PND1-52), main effect p=0.048 vs SMA Vehicle) of the same molecule?
Its Masseter function is “improved”.

What about the “Masseter function (maximum force)” value (delta7 mice [3]; delta 7 mice + low dose SMN-C1 (0.1 mg/kg PND1-52), vs SMA Vehicle) of the same molecule?
Its value is “no effect”.

And the “Masseter function (maximum force)” value (delta7 mice [3]; [8])?
Its value is “no effect”.

And the Muscle fiber types (delta7 mice [4]; [9])?
Its Muscle fiber types is “no significant differences”.

What about the “Mean fiber cross-sectional area” value (delta7 mice [4]; [10]) of the same molecule?
Its value is “increased”.

What about the “Type IIB fiber cross-sectional area” value (delta7 mice [4]; [10]) of the same molecule?
The value was “increased”.

What about the “Muscle fiber cross-sectional area” value (delta7 mice [4]; [11]) of the same molecule?
Its value is “no differences”.

What about the “Muscle fiber type percentages” value (delta7 mice [4]; [11]) of the same molecule?
Its value is “no differences”.

What about the “Muscle fiber cross-sectional area” value (delta7 mice [4]; [8]) of the same molecule?
Its value is “not affected”.

What about the “Muscle fiber type composition” value (delta7 mice [4]; [8]) of the same molecule?
Its value is “not affected”.

And the Cortical bone parameters (delta7 mice [5]; [12])?
Its Cortical bone parameters is “no effect”.

And the Trabecular bone parameters (delta7 mice [5]; [12])?
The Trabecular bone parameters was “no effect”.

What about the “Bone volume (trabecular)” value (delta7 mice [5]; [9]) of the same molecule?
Its value is “improved”.

And the Cortical cross-sectional thickness (delta7 mice [5]; [9])?
The Cortical cross-sectional thickness was “improved”.

What about the “Mean total cross-sectional bone area (cortical)” value (delta7 mice [5]; [9]) of the same molecule?
The value was “improved”.

What about the Trabecular number (delta7 mice [5]; [9]) of the same molecule?
The Trabecular number was “improved”.

And the Trabecular separation (delta7 mice [5]; [9])?
The Trabecular separation was “improved”.

What about the Trabecular thickness (delta7 mice [5]; [9]) of the same molecule?
Its Trabecular thickness is “improved”.

And the “Cross-sectional thickness in cortical bone” value (delta7 mice [5]; [8])?
The value was “improved”.

What about the “Mean total cross-sectional bone area in cortical bone” value (delta7 mice [5]; [8]) of the same molecule?
The value was “improved”.

And the Trabecular bone parameters (delta7 mice [5]; [8])?
Its Trabecular bone parameters is “no effect”.

And the Tolerability [6]?
The Tolerability was “well-tolerated”.
